According to the supplement of paper PMC6757056:
± gives the standard deviation of the averaged measurements.

B1: library; a variant is named by its letters at N, in order (parent)
chain: GCUGUCACCGGUGCUUGGUACGUUAUAUUCAGCCGGUCUGAUGAGUCUNNNNNNAGACGAAACAGC

Legend:
(6R,S)-folinic acid [1] = variants of: B1; assay: normalized RNA/DNA level without ligand (relative to sTRSVctl = 100) (log10 (% of sTRSVctl)); HEK293T overexpressing SLC46A1; higher = less ribozyme self-cleavage, higher mRNA level; conditions: without (6R,S)-folinic acid; ligand present: no
In short: (§1)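 For each 6-well well, 4 µg of library plasmid encoding mCherry-linked ribozyme switches, or eGFP-linked ones in some ligand experiments, was transfected into HEK293T. Any ligand was added 1 h before transfection, and RNA was extracted with EDTA 72 h after it, then reverse-transcribed, amplified, barcoded and sequenced. RNA level was obtained by dividing RNA reads by DNA reads, normalizing to a spiked-in non-cleaving sequence or to the top sequences, then scaling and log-transforming. The top set was 25 sequences, scaling was ×100 with log10, and ≥100 DNA reads were required.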

(6R,S)-folinic acid [2] = variants of: B1; assay: normalized RNA/DNA level with ligand (relative to sTRSVctl = 100) (log10 (% of sTRSVctl)); HEK293T overexpressing SLC46A1; ligand concentration (+) RNA-Seq: 6 mM; higher = less ribozyme self-cleavage, higher mRNA level; conditions: with (6R,S)-folinic acid; ligand present: yes
In short: as §1

| Variant | normalized RNA/DNA level without ligand (log10) ((6R,S)-folinic acid [1]) | normalized RNA/DNA level with ligand (log10) ((6R,S)-folinic acid [2]) |
| --- | --- | --- |
| UGAACC | 2.011 ± 0.0035 | 2 ± 0.031 |
| UGAACA | 1.9795 ± 0.00092 | 2.01 ± 0.037 |
| GGACGG | 2.008 ± 0.015 | 2.04 ± 0.033 |
| GGACGC | 1.949 ± 0.0027 | 1.96 ± 0.025 |
| GGACUU | 2.007 ± 0.0068 | 1.976 ± 0.016 |
| GGACUC | 2.0453 ± 0.0012 | 2.05 ± 0.03 |
| GGACUG | 1.9977 ± 0.00047 | 2 ± 0.059 |
| GGAGAG | 1.85 ± 0.02 | 1.97 ± 0.038 |
| GGAAUA | 2.022 ± 0.0049 | 2.04 ± 0.04 |
| AGAGGU | 1.889 ± 0.0033 | 2 ± 0.076 |
| AGAGGC | 2.018 ± 0.02 | 2.01 ± 0.04 |
| AGAGGA | 1.929 ± 0.014 | 2.02 ± 0.039 |
| AGAGGG | 1.78 ± 0.02 | 2.01 ± 0.015 |
| AGAAAU | 2.026 ± 0.0034 | 2.01 ± 0.044 |
| GGAACU | 2.035 ± 0.01 | 2.029 ± 0.016 |
| GGAACC | 2.036 ± 0.01 | 2.04 ± 0.06 |
| GGAACA | 2.0061 ± 0.00047 | 2.02 ± 0.043 |
| GGAACG | 2 ± 0.027 | 2.03 ± 0.032 |
| CGAAGA | 1.986 ± 0.0023 | 2.01 ± 0.049 |
| CGAAGC | 2.02 ± 0.033 | 2.04 ± 0.042 |
| CGAAGU | 1.99 ± 0.03 | 2 ± 0.032 |
| CGAAGG | 1.859 ± 0.012 | 1.94 ± 0.022 |
| UGACAC | 2.002 ± 0.0083 | 2.008 ± 0.0047 |
| UGACAU | 1.9505 ± 0.00041 | 1.99 ± 0.05 |

| Variant | normalized RNA/DNA level without ligand (log10) ((6R,S)-folinic acid [1]) | normalized RNA/DNA level with ligand (log10) ((6R,S)-folinic acid [2]) |
| --- | --- | --- |
| UGAAUU | 1.986 ± 0.0089 | 2 ± 0.036 |
| UGAAUC | 2.07 ± 0.021 | 2.06 ± 0.047 |
| UGAAUA | 1.965 ± 0.0093 | 2.03 ± 0.026 |
| CGACGG | 1.926 ± 0.014 | 1.973 ± 0.015 |
| CGACGC | 2.03 ± 0.0041 | 2.01 ± 0.038 |
| CGACGU | 1.995 ± 0.002 | 2.02 ± 0.021 |
| CGACGA | 2.001 ± 0.011 | 2 ± 0.05 |
| GGACAG | 1.954 ± 0.0092 | 1.99 ± 0.052 |
| GGACAU | 2.018 ± 0.011 | 2.011 ± 0.016 |
| GGACAC | 2.013 ± 0.013 | 2.03 ± 0.039 |
| UGACCU | 2.058 ± 0.011 | 2.06 ± 0.034 |
| UGACCG | 1.983 ± 0.0022 | 2.01 ± 0.023 |
| UGACCC | 2.041 ± 0.011 | 2.02 ± 0.026 |
| CGACCA | 2.079 ± 0.0068 | 2.03 ± 0.034 |
| CGACCG | 1.991 ± 0.007 | 1.99 ± 0.018 |
| CGACCU | 2.061 ± 0.0049 | 2.016 ± 0.013 |
| CGACCC | 2.05 ± 0.028 | 2.02 ± 0.051 |
| AGACAU | 1.994 ± 0.0052 | 2.02 ± 0.026 |
| AGACAC | 2.0193 ± 0.00083 | 2.01 ± 0.028 |
| AGACAA | 2.004 ± 0.0066 | 2.01 ± 0.03 |
| UGACGU | 1.97 ± 0.03 | 2.02 ± 0.023 |
| UGACUU | 2.006 ± 0.014 | 2.017 ± 0.015 |
| UGACUC | 2.075 ± 0.011 | 2.042 ± 0.0068 |
| UGACUA | 1.963 ± 0.0017 | 2.0143 ± 0.0019 |

| Variant | normalized RNA/DNA level without ligand (log10) ((6R,S)-folinic acid [1]) | normalized RNA/DNA level with ligand (log10) ((6R,S)-folinic acid [2]) |
| --- | --- | --- |
| CGACAG | 1.95 ± 0.031 | 1.972 ± 0.018 |
| CGACAA | 1.945 ± 0.013 | 1.96 ± 0.029 |
| CGACAC | 2.026 ± 0.012 | 2 ± 0.037 |
| CGACAU | 2.006 ± 0.006 | 2.02 ± 0.044 |
| CGACUU | 2.01 ± 0.035 | 2.05 ± 0.025 |
| CGACUA | 2.014 ± 0.0047 | 2.042 ± 0.0086 |
| CGACUG | 2.028 ± 0.0025 | 2.014 ± 0.011 |
| CGACUC | 2.08 ± 0.023 | 2.04 ± 0.07 |
| CGAACG | 2.0268 ± 0.0006 | 2.024 ± 0.0057 |
| CGAACU | 2 ± 0.023 | 2 ± 0.05 |
| UGAAGC | 1.964 ± 0.018 | 2 ± 0.021 |
| AGAACU | 2.036 ± 0.0042 | 2.075 ± 0.0036 |
| AGAACC | 2.02 ± 0.0077 | 2.01 ± 0.049 |
| AGAACG | 1.954 ± 0.0051 | 2.018 ± 0.016 |
| AGAACA | 2.007 ± 0.0027 | 2.02 ± 0.045 |
| AGACUU | 2.021 ± 0.0033 | 1.99 ± 0.024 |
| AGACUA | 1.977 ± 0.0092 | 1.98 ± 0.043 |
| AGACUC | 2.038 ± 0.0045 | 2.05 ± 0.021 |
| AGACUG | 2.003 ± 0.0063 | 2.01 ± 0.04 |
| AGAAGU | 1.938 ± 0.007 | 1.9746 ± 0.00065 |
| AGAAGC | 2.004 ± 0.0023 | 2.049 ± 0.016 |
| AGAAGG | 1.931 ± 0.019 | 2.01 ± 0.037 |
| AGAAGA | 1.949 ± 0.0067 | 2.02 ± 0.025 |
| AGAGCG | 1.775 ± 0.0033 | 1.97 ± 0.029 |

| Variant | normalized RNA/DNA level without ligand (log10) ((6R,S)-folinic acid [1]) | normalized RNA/DNA level with ligand (log10) ((6R,S)-folinic acid [2]) |
| --- | --- | --- |
| AGAGCA | 1.977 ± 0.0046 | 2.01 ± 0.051 |
| AGAGCC | 2.05 ± 0.003 | 2.04 ± 0.045 |
| UGAGCC | 2.038 ± 0.0055 | 2.04 ± 0.041 |
| UGAGCA | 1.95 ± 0.014 | 2.0212 ± 0.00076 |
| CGAGGC | 2.03 ± 0.013 | 2.04 ± 0.031 |
| CGAGGU | 2.02 ± 0.02 | 2.02 ± 0.054 |
| CGAGGA | 2.019 ± 0.0022 | 2.04 ± 0.029 |
| AGACGU | 1.976 ± 0.0062 | 2.01 ± 0.026 |
| AGACGG | 1.934 ± 0.011 | 2.01 ± 0.027 |
| GGACCC | 2.045 ± 0.019 | 2.027 ± 0.015 |
| GGACCA | 2.054 ± 0.017 | 2.02 ± 0.029 |
| GGACCU | 2.062 ± 0.0094 | 2.02 ± 0.033 |
| CGAGCC | 2.06 ± 0.028 | 2.03 ± 0.039 |
| CGAGCA | 2 ± 0.021 | 2.02 ± 0.029 |
| CGAGCG | 1.994 ± 0.015 | 1.998 ± 0.017 |
| CGAGCU | 2.014 ± 0.02 | 2.03 ± 0.04 |
| CGAAUG | 2.0224 ± 0.0012 | 2.034 ± 0.012 |
| CGAAUU | 2 ± 0.026 | 2.01 ± 0.037 |
| CGAAUC | 2.05 ± 0.019 | 2.03 ± 0.034 |
| AGAGAG | 1.67 ± 0.022 | 1.966 ± 0.015 |
| AGAGAC | 1.981 ± 0.0066 | 2.009 ± 0.016 |
| AGAGAA | 1.953 ± 0.0039 | 1.99 ± 0.025 |
| AGAGAU | 1.982 ± 0.011 | 1.99 ± 0.023 |
| UGAGAC | 1.912 ± 0.011 | 1.98 ± 0.028 |

| Variant | normalized RNA/DNA level without ligand (log10) ((6R,S)-folinic acid [1]) | normalized RNA/DNA level with ligand (log10) ((6R,S)-folinic acid [2]) |
| --- | --- | --- |
| GGAGCG | 1.939 ± 0.011 | 2.02 ± 0.041 |
| GGAGCA | 1.978 ± 0.0021 | 2.02 ± 0.022 |
| GGAGCU | 2.045 ± 0.017 | 2.04 ± 0.04 |
| GGAAGG | 1.95 ± 0.022 | 2.03 ± 0.04 |
| GGAAGU | 1.978 ± 0.0031 | 2.01 ± 0.032 |
| GGAAGC | 1.9092 ± 0.0019 | 1.99 ± 0.044 |
| AGACCC | 2.039 ± 0.0085 | 2.02 ± 0.055 |
| AGACCG | 2.05 ± 0.026 | 2.04 ± 0.029 |
| AGAAUU | 2.005 ± 0.02 | 2.021 ± 0.008 |
| AGAAUC | 2.0639 ± 0.001 | 2.05 ± 0.033 |
| AGAAUA | 1.9881 ± 0.00025 | 2.02 ± 0.037 |
| AGAAUG | 1.893 ± 0.0045 | 2 ± 0.039 |
| GGAGGA | 1.975 ± 0.0041 | 2.01 ± 0.046 |
| GGAGGG | 1.98 ± 0.028 | 2.04 ± 0.046 |
| UGAGGC | 1.982 ± 0.0067 | 1.98 ± 0.073 |
| UGAGGU | 1.918 ± 0.017 | 2.02 ± 0.032 |
| CGAGAU | 1.957 ± 0.011 | 1.99 ± 0.025 |
| CGAGAC | 1.947 ± 0.015 | 1.974 ± 0.012 |
| CGAGAG | 1.964 ± 0.015 | 1.964 ± 0.0059 |
| GGAAAU | 1.98 ± 0.025 | 2.04 ± 0.027 |
